{"source": "paper PMC11268888", "biological_target": "soluble head domain of CDV-H (canine distemper virus hemagglutinin), Kyoto Biken vaccine strain, mad (canine distemper virus (Kyoto Biken vaccine strain))", "experiment": "SEC + other: non-reducing SDS-PAGE"}
{"substance": "soluble head domain of CDV-H (canine distemper virus hemagglutinin), Kyoto Biken vaccine strain, mad (domain or fragment)", "values": [{"measurement": "stoichiometry N", "result": 2}]}
